Experiment [1] concerns the target T1, human C16orf54 ECD fragment aa1-15 (human).
T1 peptide: MPLTPEPPSGRVEGP
Put plainly: peptide ELISA, 2 ug/ml peptide coated, 10 ug/ml antibody. The procedure: (§1) Anti-C16orf54 antibodies which bind to human C16orf54, including antibodies that are crossreactive with cyno C16orf54, were tested for their binding to various peptides derived from C16orf54 in a peptide ELISA. A 384-well high binding black microplate (Greiner) was incubated with 2 μg/ml of protein (human, cyno, or mouse extracellular domain peptides) for 16 hours, incubated for 1 hr with a blocking buffer (PBS with 5% Fetal Bovine Serum), washed four times with TBS with Tween, incubated for 1 hour with 10 μg/ml of anti-C16orf54 antibody, washed four times with TBS with Tween, incubated for 1 hour with 10 μg/ml of Peroxidase-AffiniPure Goat Anti-Mouse IgG, Fcγ Fragment Specific (Jackson ImmunoResearch), washed four times with TBS with Tween, and peroxidase was detected with a luminometer (Molecular Devices) upon addition of SuperSignal® ELISA Pico Chemiluminescent Substrate (Thermo Scientific). The luminescence signal was determined.

For experiment [2], the target named is T2, human C16orf54 ECD fragment aa9-24 (human).
T2 peptide: SGRVEGPPAWEAAPWP
The experiment is described as above. The procedure: as §1

The target of experiment [3] is T3, human C16orf54 (human, UniProt Q6UWD8 1-224).
T3 construct: also called huC16orf54; hC16orf54
T3 sequence: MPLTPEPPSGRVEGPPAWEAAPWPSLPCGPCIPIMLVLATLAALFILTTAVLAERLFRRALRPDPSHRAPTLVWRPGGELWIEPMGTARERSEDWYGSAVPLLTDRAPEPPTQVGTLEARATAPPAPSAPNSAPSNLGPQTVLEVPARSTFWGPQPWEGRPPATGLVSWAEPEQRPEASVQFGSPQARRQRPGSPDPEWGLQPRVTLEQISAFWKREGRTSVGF
Put plainly: flow cytometry, HEL92.1.7 leukemia cells (endogenous C16orf54), 3 repeats.

The target in experiment [4] is T3, human C16orf54. Put plainly: flow cytometry, WSU-FSCCL lymphoma cells (endogenous C16orf54), 3 repeats.
In experiment [5] the target is T3, human C16orf54. The experiment can be described thus: flow cytometry, KARPAS-1106P lymphoma cells (endogenous C16orf54), 1 repeat.
Experiment [6] has as its target T3, human C16orf54. The experiment can be described thus: flow cytometry, BxPC-3 pancreatic cancer cells (endogenous C16orf54), 3 repeats.
The target of experiment [7] is T4, N-terminal 32 amino acids of huC16orf54 coupled to biotin (human, biotin at the C-terminus).
T4 construct: also called 32 amino acid N-terminal extracellular domain
T4 peptide: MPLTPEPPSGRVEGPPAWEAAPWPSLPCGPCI
The experiment can be described thus: biolayer interferometry (OctetQK384), purified antibody on streptavidin sensors coated with the biotinylated peptide. The procedure: Affinity measurements of purified anti-huC16orf54 antibodies were carried out on the OctetQK384® sytem (ForteBio). After coating streptavidin sensors with the N-terminal 32 amino acids of huC16orf54 coupled to biotin at the C-terminus, association and dissociation of purified anti-huC16orf54 antibodies was monitored. KD values were derived using ForteBio's software.

In experiment [8] the target is T4, N-terminal 32 amino acids of huC16orf54 …. Put plainly: biolayer interferometry (OctetQK384), hybridoma supernatant on streptavidin sensors coated with the biotinylated peptide. The procedure:
Eight anti-huC16orf54 monoclonal antibodies were further screened for binding and subsequent off-rate analysis using the OctetQK384® sytem (ForteBio). Hybridoma supernatants were screened for association to and dissocation from streptavidin sensors coated with the N-terminal 32 amino acids of huC16orf54 coupled to biotin, and the calculated offrates (kdis) are shown in Table 31. Cloned hybridomas with […] off-rates were carried forward for antibody purification.

The target in experiment [9] is T3, human C16orf54. The experiment can be described thus: cell ELISA on huC16orf54-expressing sarcoma cells, purified antibody in 1:4 eight-point dilution from 200 nM, 2 h at 4 C, anti-mouse IgG Fc HRP luminescence. The procedure: Purified anti-huC16orf54 monoclonal antibodies were also tested for binding by ELISA. huC16orf54-expressing sarcoma cells were incubated with an 1:4 eight-point dilution series starting with 200 nM of anti-huC16orf54 antibody for 2 hours at 4° C. After washing, the cells were incubated with a secondary antibody (Jackson Immunologicals Goat×IgG, Fc specific HRP—Product#115-035-071) and detected with SuperSignal® ELISA Pico Chemiluminescent substrate (Thermo Scientific—Product#37069). EC50 values were determined using Graphpad Prism® software. An isotype control, R22-4-26A, is also shown.

Experiment [10] has as its target T5, C16orf54 on peripheral blood and bone marrow mononuclear cells (Homo sapiens, UniProt Q6UWD8).
T5 construct: endogenous in cells; host or cells: PBMC and BMMC from healthy donors
T5 sequence (Q6UWD8 1-224): T3 sequence
The experiment can be described thus: Flow cytometry of PBMC and BMMC from healthy donors. The class given is binding. The procedure: Anti-C16orf54 antibodies were tested for their binding to various cell lines and primary samples (e.g., AML, CLL, lymphoma) using flow cytometry. Copy number of C16orf54 on the various cell lines was determined. Peripheral blood mononuclear (PBMC) and bone marrow mononuclear (BMMC) cells from healthy donors were immunofluorescently stained using the antibodies of CD19, CD3, CD14, CD34, CD33, lineage markers, in addition to an anti-C16orf54 antibody and isotype control antibody, and then evaluated by flow cytometric analysis. […] In single lineage gated populations, C16orf54 is broadly expressed in CD19+ B cells, CD14+ monocytes, CD34+/lineage—progenitor cells and CD33+ myeloid cells, whereas CD3+ T cells have a distinctively low to undetectable level of C16orf54.

For experiment [11], the target named is T6, C16orf54 on cell lines and primary samples (Homo sapiens, UniProt Q6UWD8).
T6 sequence (Q6UWD8 1-224): T3 sequence
The experiment can be described thus: C16orf54 copy number enumeration by flow cytometry with AlexaFluor647 conjugated antibody. The class given is binding. The protocol:
In some assays, human cell lines and primary samples were immunofluorescently stained using an anti-C16orf54 monoclonal antibody R29-7-1C that was conjugated to AlexaFluor647, and copy number of C16orf54 was determined by interpolation on a calibration curve generated by Quantum™ Simply Cellular® bead standards (Bangs Laboratories, Inc.) Copy number results are shown in Table 39 various cell lines and primary samples expressing C16orf54. […]

B1: R29-7-1C (antibody, V domains shown)
VH: DVQLQESGPGLVKPSQSLSLTCTVTGYSITSDYAWNWIRQFPGNKLEWMGYISYSGSIRYNPSLKSRISITRDTSKNQFFLQLNSVTTEDTATYYCAREKYDNYYYAMDYWGQGTSVTVSS
VL: DIVMSQSPSSLAVSVGEKVTLSCKSSQNLLYSTNQKNYLAWYQQKPGQSPKLLIYWASTRESGVPDRFTGSGSGTDFTLTISSVKAEDLAVYYCQQYYSYRTFGGGTKLEIK
notes: Murine monoclonal IgG2a from a hybridoma
With B1, the binding result in experiment [1] and in experiment [2] was “binds” in each case. Further, the “Average MFI fold change relative to isotype control” value came out at 5 fold with human C16orf54 [3], 13.7 fold with human C16orf54 [4], 10.5 fold with human C16orf54 [5] and 7 fold with human C16orf54 [6]. Moreover, binding in [7] was characterised by a dissociation constant (Kd) of 1.1 nM. Also, the figures for the koff in [7] and in [8] were 7.95e-05 s⁻¹ and 0.0102 s⁻¹, respectively. The kon in [7] came out at 68100 M⁻¹ s⁻¹. The “EC50 (read off the curve)” value in the experiment with human C16orf54 [9] was about 0.07 nM.

B2: R29-7-1C: murine anti-C16orf54 monoclonal antibody, IgG2a; VH SEQ ID NO: 8, VL SEQ ID NO: 10 (antibody, V domains shown)
VH: MRVLILLWLFTAFPGILSDVQLQESGPGLVKPSQSLSLTCTVTGYSITSDYAWNWIRQFPGNKLEWMGYISYSGSIRYNPSLKSRISITRDTSKNQFFLQLNSVTTEDTATYYCAREKYDNYYYAMDYWGQGTSVTVSS
VL: MDSQAQVLMLLLLWVSGTCGDIVMSQSPSSLAVSVGEKVTLSCKSSQNLLYSTNQKNYLAWYQQKPGQSPKLLIYWASTRESGVPDRFTGSGSGTDFTLTISSVKAEDLAVYYCQQYYSYRTFGGGTKLEIK
modifications: R29-7-1C heavy chain variable region; R29-7-1C light chain variable region
In the case of B2, in experiment [10], the “staining of PBMC and BMMC from healthy donors (C16orf54 expression)” value is recorded as “low but positive expression of C16orf54 with slightly higher level in BMMCs”. Besides, the “Bang's analysis Average copy #” value is given as 19,975 (1) in experiment [11] (Human cell line KG1/lymphoblast); 29,971 (10) in experiment [11] (Human cell line KG1/myeloblast); 11,198 (1) in experiment [11] (Human cell line KG1A); 5,517 (3) in experiment [11] (Human cell line WSU-DLCL2); 4,221 (3) in experiment [11] (Human cell line WSU-FSCCL); 3,979 (1) in experiment [11] (Primary Sample CLL 1). Besides, the “Bang's analysis Average copy #” value in experiment [11] (Primary Sample CLL 2) was 10,515 (1); in [11] (Primary Sample CLL 3) it was 12,277 (1); in experiment [11] (Primary Sample CLL 4), 11,240 (1); in [11] (Primary Sample Lymphoma 1), 10,630 (1); in [11] (Primary Sample Lymphoma 2), 34,397 (1); in experiment [11] (Primary Sample MM 1), 5,798 (1). Moreover, the “Bang's analysis Average copy #” value in experiment [11] (Primary Sample MM 2) is 7,590 (1).
